Laboratory results from article PMC11491487.

What was measured:
[1] = target: chiRyR-I4657M/G4819E (chiRyR carrying the two resistance mutations) (rabbit) (UniProt P11716); assay: cryo-EM structure; 5 mg/ml purified chiRyR samples with 5 mM caffeine, 2 mM ATP, 100 µM CaM1234, Ca2+, 2% or 5% DMSO, with or without diamide (50 µM FLU or TET; 625 µM CHL); 1 h at room temperature; C4 symmetry in refinement
[2] = target: chimeric RyR (chiRyR): rabbit RyR1 carrying four Spodoptera frugiperda RyR residues of the diamide-binding pocket (rabbit) (UniProt P11716); assay: as above

chiRyR-I4657M/G4819E (chiRyR carrying the two resistance mutations), P11716 1-5037 (receptor)
stoichiometry N [1]: 4

chimeric RyR (chiRyR): rabbit RyR1 carrying four Spodoptera frugiperda RyR residues of the diamide-binding pocket, P11716 1-5037 (receptor)
stoichiometry N [2]: 4
